Assay results: patent publication US20110105397A1, “METHOD FOR TREATING HEART FAILURE WITH STRESSCOPIN-LIKE PEPTIDES” (priority 2009, published 2011)
Where no end group is shown, it is not given here. Side-chain parts run from the residue outwards. acetamide = acetamide linker between the Cys residue and the PEG

Experiments:
human CRHR2 = molecular target: T1, human CRHR2 (Homo sapiens, UniProt Q13324); assay: cAMP assay, h-CRHR2 transfected SK-N-MC cells; assay type: cell-based; details: for EC50 / Log DR [M]: Table 13; for EC50: cysteine mutation, N-ethylmaleimide capping, pegylation, read-out: pA50 (converted); for Log DR [M]: h-SCP control pA50 minus test compound pA50 within the same assay batch
T1 construct: expressed in transfected cells
T1 sequence (Q13324 1-411): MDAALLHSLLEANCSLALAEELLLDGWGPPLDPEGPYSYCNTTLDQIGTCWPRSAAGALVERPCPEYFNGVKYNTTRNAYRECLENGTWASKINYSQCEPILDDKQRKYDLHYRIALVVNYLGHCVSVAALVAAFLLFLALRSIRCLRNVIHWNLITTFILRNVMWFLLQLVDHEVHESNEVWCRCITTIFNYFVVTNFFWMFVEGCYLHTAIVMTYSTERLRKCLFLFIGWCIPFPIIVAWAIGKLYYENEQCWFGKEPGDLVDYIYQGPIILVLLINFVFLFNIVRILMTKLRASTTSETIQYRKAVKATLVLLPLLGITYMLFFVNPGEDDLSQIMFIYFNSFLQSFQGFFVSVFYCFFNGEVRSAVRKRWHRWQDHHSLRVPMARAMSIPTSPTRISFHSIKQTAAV
Outline: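 Intracellular cAMP was quantified by radioligand competition against a cAMP standard curve after HCl lysis of h-CRHR2-transfected SK-N-MC cells. These cells had been exposed to peptides from 1 pM to 1 μM for 1 h at 37 °C with IBMX. Responses were scaled to the daily h-SCP maximum and fitted to the Hill equation to give A50/pA50.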

HF dogs = assay: Single SC bolus injection in HF dogs; assay type: in vivo, dog
Description: After reaching a steady state plasma concentration, the heart rate remained fairly stable. […] The target plasma concentration of about 60 ng/mL is reached in about 2 hours and 10 minutes after the time point of injection, then leveling off at about 100 ng/mL after about 3, still maintaining its level at about 6 hours after injection. The stresscopin-relative concentration of 60 ng/mL and of 100 ng/mL of a SEQ ID NO:102 peptide is 600 pg/mL and 1000 pg/mL, respectively.

[1] = Nonclinical pharmacokinetics in rats; design: species or system rat; details: rat, in vivo; for % F (Bioavailability) / AUC0-∞ / Tmax: sc
Description: (§1) A sandwich immunoassay was developed using an affinity purified goat polyclonal antibody, specific to h-SCP that was pre-coated onto a microplate with integrated electrodes. h-SCP molecules present in the sample will bind to the capture polyclonal antibody coated on the plate. After washing away any unbound substances, a sulfo-tagged mouse monoclonal anti-h-SCP antibody was added. This conjugated antibody will bind to the h-SCP molecules captured on the microplate and the quantity of analyte was determined by electrochemiluminescence. The amount of signal generated is directly proportional to the h-SCP concentration in the sample or standard. The standard curve range is 3.125-1600 pg/mL with a quantifiable range from 10-800 pg/mL. A sample volume of 25 μL (in duplicate) is required for this assay. This immunoassay is specific for human and dog stresscopin and human urocortin III (h-UCN3). […] After completion of the analysis, based on a comparison of reference standards between the ELISA and HPLC method, a correction factor of 1.57 was applied to all bioanalytical data.
(§2) The nonclinical pharmacokinetics of h-SCP (SEQ ID NO:1) and pegylated stresscopin-like peptides were studied in rats, dogs, and cynomolgus monkeys (cyno). Nonclinical pharmacokinetic studies focused on characterization of IV infusion at pharmacologically relevant dose levels, supplemented with IV and SC bolus and toxicokinetic analysis.

[2] = Nonclinical pharmacokinetics in dogs; design: species or system dog; details: dog, in vivo
Description: as §1, §2

[3] = molecular target: T2, human corticotrophin releasing hormone receptor type 2 (CRHR2) (human) (UniProt Q13324); assay: cell-based or functional assay
T2 sequence (looked up): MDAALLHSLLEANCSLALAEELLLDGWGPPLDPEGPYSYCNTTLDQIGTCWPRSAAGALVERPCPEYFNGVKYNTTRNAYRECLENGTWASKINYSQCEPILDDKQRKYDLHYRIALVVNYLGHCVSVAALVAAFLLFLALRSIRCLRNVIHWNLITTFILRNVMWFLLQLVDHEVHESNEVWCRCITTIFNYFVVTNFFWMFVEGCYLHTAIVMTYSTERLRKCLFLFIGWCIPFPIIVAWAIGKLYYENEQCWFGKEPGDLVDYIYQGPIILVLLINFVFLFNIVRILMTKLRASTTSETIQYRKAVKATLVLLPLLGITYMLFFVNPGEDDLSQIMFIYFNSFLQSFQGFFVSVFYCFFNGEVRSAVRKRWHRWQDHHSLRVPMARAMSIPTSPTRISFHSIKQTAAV

[4] = molecular target: T3, human corticotrophin releasing hormone receptor type 1 (CRHR1) (human, UniProt P34998 24-415); assay: cell-based or functional assay
T3 sequence (looked up): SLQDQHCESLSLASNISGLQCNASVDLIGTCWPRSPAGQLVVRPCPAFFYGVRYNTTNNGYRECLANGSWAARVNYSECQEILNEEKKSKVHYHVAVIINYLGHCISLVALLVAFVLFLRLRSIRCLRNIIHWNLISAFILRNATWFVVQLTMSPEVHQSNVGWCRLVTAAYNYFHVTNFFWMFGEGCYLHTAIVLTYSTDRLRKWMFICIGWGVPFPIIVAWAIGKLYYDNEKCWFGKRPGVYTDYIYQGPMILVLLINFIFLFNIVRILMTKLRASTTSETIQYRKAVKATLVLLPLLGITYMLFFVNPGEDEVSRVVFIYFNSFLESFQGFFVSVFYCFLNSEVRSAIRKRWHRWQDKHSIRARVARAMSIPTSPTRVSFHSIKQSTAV

[5] = molecular target: T2, human corticotrophin releasing hormone receptor type 2 (CRHR2) (human); assay: radioligand competition against [125I]-anti-sauvagine-30, membranes of SK-N-MC cells with human CRHR2
[6] = molecular target: T4, human corticotrophin releasing hormone receptor type 2 (CRHR2) (human, UniProt Q13324 1-411); assay: cell-based or functional assay
T4 sequence (looked up): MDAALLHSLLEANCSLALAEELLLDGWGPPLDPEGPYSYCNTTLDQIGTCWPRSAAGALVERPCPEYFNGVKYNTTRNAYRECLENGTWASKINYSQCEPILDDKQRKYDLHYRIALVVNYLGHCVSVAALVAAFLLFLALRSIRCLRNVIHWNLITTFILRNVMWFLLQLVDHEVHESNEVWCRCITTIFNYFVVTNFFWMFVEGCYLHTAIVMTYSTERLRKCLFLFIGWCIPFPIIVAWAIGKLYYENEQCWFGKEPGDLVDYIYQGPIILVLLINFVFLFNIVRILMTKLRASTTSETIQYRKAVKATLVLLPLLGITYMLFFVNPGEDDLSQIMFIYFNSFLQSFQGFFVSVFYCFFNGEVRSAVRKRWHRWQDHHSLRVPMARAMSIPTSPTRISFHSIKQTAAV

For “TKFTLSLDVPTNIMNLLFNIAKAKNLRC(-IA-PEG MW20000)QA AANAH LMAQI-NH2 (TKFTLSLDVPTNIMNLLFNIAKAKNLRC([acetamide-PEG 20 kDa])QAAANAHLMAQI-NH2) [SEQ ID NO: 102]”, the “pA50 in the presence of anti-sauvagine-30” value (human CRHR2; 100 nM anti-sauvagine-30, maximal response constrained to 100%) was roughly 6.89, the “agonist potency ratio to stresscopin of SEQ ID NO:1 reduced by a factor” value (human CRHR2; 10^(9.40-8.15)) was 17.78 and the nH (human CRHR2; Table 14) was 1.05. For the same molecule, the pA50 (human CRHR2; Table 14) was 8.15, the αmax (human CRHR2; Table 14, % of the maximum response obtained to h-SCP) was 111.1% and the heart rate (HF dogs; HF dogs, bolus SC injection 30 μg/kg) was “declined over the first few hours”. The “LVEF and CO performance” value (HF dogs; HF dogs, bolus SC injection 30 μg/kg, up to 4 hours) was “significantly increased”, the stresscopin-relative concentration (HF dogs; of 60 ng/mL of SEQ ID NO:102 peptide) was 600 pg/mL and the stresscopin-relative concentration (HF dogs; of 100 ng/mL of SEQ ID NO:102 peptide) was 1000 pg/mL. The “Vz (volume of distribution)” value ([1]; iv, 15 ug/kg) was 510 ± 23 mL/kg, the “% F (Bioavailability)” value ([1]; 15 ug/kg) was 36% and the “AUC0-∞” value ([1]; 15 ug/kg) was 342 ± 107 ng·h/mL. The Tmax ([1]; 15 ug/kg) was 7 ± 1 h, the “% F (Bioavailability)” value ([1]; 150 ug/kg) was 20% and the “AUC0-∞” value ([1]; 150 ug/kg) was 1914 ± 464 ng·h/mL. For the same molecule, the Tmax ([1]; 150 ug/kg) was 6.3 ± 1.8 h, the “Vz (volume of distribution)” value ([2]; iv, 15 ug/kg) was 34 ± 7 mL/kg and the “% F (Bioavailability)” value ([2]; sc, 5 ug/kg) was 71%. The “AUC0-∞” value ([2]; sc, 5 ug/kg) was 3510 ± 270 ng·h/mL, the Cmax ([2]; sc, 5 ug/kg) was 24.6 ± 2.6 ng/mL and the Tmax ([2]; sc, 5 ug/kg) was 32 ± 8 h. For the same molecule, the “% F (Bioavailability)” value ([2]; sc, 15 ug/kg) was 41%, the “AUC0-∞” value ([2]; sc, 15 ug/kg) was 6089 ± 1808 ng·h/mL and the Tmax ([2]; sc, 15 ug/kg) was 5 ± 1 h.

For “TKFTLSLDVPTNIMNLLFNIAKAKNLRAQAAANAHLMACI-NH2 [SEQ ID NO: 40, TKFTLSLDVPTNIMNLLFNIAKAKNLRAQAAANAHLMACI-NH2]”, the EC50 (human CRHR2) was 0.832 nM and the “Log DR [M]” value (human CRHR2) was 0.55.

In the case of “TKFTLSLDVPTNIMNLLFNICKAKNLRAQAAANAHLMAQI-NH2 [SEQ ID NO: 22, TKFTLSLDVPTNIMNLLFNICKAKNLRAQAAANAHLMAQI-NH2]”, the EC50 (human CRHR2) is reported as 0.676 nM and the “Log DR [M]” value (human CRHR2) is reported as 0.52.

With “TKFTLSLDVPTNIMNLLFNIAKAKNLRACAAANAHLMAQI-NH2 [SEQ ID NO: 30, TKFTLSLDVPTNIMNLLFNIAKAKNLRACAAANAHLMAQI-NH2]” the EC50 (human CRHR2) was 3.98 nM and the “Log DR [M]” value (human CRHR2) was 1.28.

For “TKFTLSLDVPTNIMNLLFNIAKACNLRAQAAANAHLMAQI-NH2 [SEQ ID NO: 25, TKFTLSLDVPTNIMNLLFNIAKACNLRAQAAANAHLMAQI-NH2]”, the EC50 (human CRHR2) was 0.676 nM and the “Log DR [M]” value (human CRHR2) was 0.35.

In the case of “TKFTLSLDVPTNIMNLLFNIAKAKNLRAQAAANAHCMAQI-NH2 [SEQ ID NO: 37, TKFTLSLDVPTNIMNLLFNIAKAKNLRAQAAANAHCMAQI-NH2]”, the EC50 (human CRHR2) is reported as 2.63 nM and the “Log DR [M]” value (human CRHR2) is reported as 1.05.

For IVLSLDVPIGLLQILLEQARARAAREQATTNARILARV-NH2 [human urocortin 2], the pA50 [3] was 9.51 -log10(M), the pA50 [4] was 6.02 -log10(M) and the pKI [5] was 7.74 -log10(M).

With TLSLDVPTNIMNLLFNIAKAKNLRAQAAANAHLMAQI-NH2 [Stresscopin-like peptide with shortened amino acid sequence, 37 aa, SEQ ID NO: 108] the pA50 [6] was 8.49 -log10(M).

With LSLDVPTNIMNLLFNIAKAKNLRAQAAANAHLMAQI-NH2 [Stresscopin-like peptide with shortened amino acid sequence, 36 aa, SEQ ID NO: 109] the pA50 [6] was 7.34 -log10(M).

For KFTLSLDVPTNIMNLLFNIAKAKNLRAQAAANAHLMAQI-NH2 [Stresscopin-like peptide with shortened amino acid sequence, 39 aa, SEQ ID NO: 107], the pA50 [6] was 9.25 -log10(M).
